{
  "source": "patent US8138148B2",
  "about": "“GDNF derived peptides” (Copenhagen University, priority 2005, dated 2012)",
  "molecules": {"B1": {"name": "GDNF: glial cell line-derived neurotrophic factor, full-length protein used as stimulus (protein)", "chain": "SPDKQMAVLPRRERNRQAAAANPENSRGKGRRGQRGKNRGCVLTAIHLNVTDLGLGYETKEELIFRYCSGSCDAAETTYDKILKNLSRNRRLVSDKVGQACCRPIAFDDDLSFLDDNLVYHILRKHSAKRCGCI"}},
  "format_in_all_cases": "cell-based, rat",
  "key": {"hippocampal neurons [1]": {"test_system": "hippocampal neurons", "test": "Neurite outgrowth of hippocampal neurons transfected with dominant negative FGFR", "conditions": "10 ng/ml GDNF or 3 μg/ml GDNFp1, 18 hours, dnFGFR vs empty vector", "protocol": "(§1) For cocultures, L-cells were seeded in 8-well LabTek® Permanox Chamber slides at a density of 100.000 cells/well, except for transfection experiments where cells were seeded in 4-well LabTek® Permanox Chamber slides at a density of 200.000 cells/well. L-cells were grown for 24 hours in DMEM supplemented with 10% (v/v) FCS, 1% (v/v) glutamax, 100 U/ml penicillin, 100 μg/ml streptomycin, 2.5 μg/ml fungizone, and 567 μg/ml neomycin (G418), followed by washing twice in neurobasal medium with supplements before primary hippocampal neurons were seeded at a density of 7.000 cells/well in 8-well slides or 20.000 cells/well in 4-well slides.\nAdditionally, neurons were transiently transfected with a dominant negative version of the FGFR (dnFGFR), As an alternative to the use of a pharmacological FGFR inhibitor, The dnFGFR plasmid encodes an FGFR that lacks the kinase domain. This mutant receptor inhibits the function of wild type FGFR by engaging in dimers that lack kinase activity. Transfection with an empty vector served as control. Transfection was also done with wtFGFR in order to assess the effect of overexpressing the FGFR.\nTransfections were performed with a Nucleofector™ device and a Rat Neuron Nucleofector™ kit (Amaxa Inc., Gaithersburg, Md., USA). This transfection method is based on electroporation in combination with a Nucleofector™ solution containing lipophilic agents. These agents form liposomes containing the plasmid DNA, which then enter the cells during electroporation. The method allows transfection of undividing cells such as neurons. 3 μg of the plasmid of interest was mixed with the Nucleofector™ solution and primary hippocampal neurons were resuspended in the mixture, electroporated in the Nucleofector™ device, and transferred to neurobasal medium with supplements and 5% (v/v) FCS. Cells were then incubated for 2 hours after which they were resuspended in medium without serum, counted, seeded and incubated for 6 hours before GDNF or GDNFp1 was added. Medium alone was added to control and cells were incubated for 18 hours.\nAll transient transfections in this study included co-transfection with a plasmid encoding EGFP, which allows the identification of transfected cells. To ensure that all EGFP-expressing cells also are transfected with the plasmid of interest, a ratio of […] between the EGFP-encoding plasmid and the plasmid of interest was used (i.e. 0.5 μg EGFP-encoding plasmid was used for each transfection).\nNeurite outgrowth experiments were terminated after the stated time by fixating the cells. To visualize neurons and their neurites, immunostaining of GAP-43 was performed. This staining is specific for neurons. Transfected cells and their neurites should be visible without immunostaining due to the fluorescence emitted by GFP. […]"}, "hippocampal neurons [2]": {"test_system": "hippocampal neurons", "test": "Neurite outgrowth assay, co-cultures of hippocampal neurons on control fibroblasts or NCAM-expressing fibroblasts", "conditions": "24 hours", "protocol": "(§2) Two different versions of the neurite outgrowth assay were used in this study, monocultures and co-cultures.\n(§3) In monocultures, neurons are grown directly on plastic and the only neuritogenic stimulus is the one presented by the added substance. In co-cultures, neurons are grown on top of a confluent monolayer of fibroblasts expressing NCAM-140 (LBN110) or NCAM-negative control fibroblasts (LVN212). NCAM on the neurons interact with NCAM on LBN110 cells thereby stimulating neurite outgrowth from the neurons. This system thus permits the study of NCAM-NCAM interactions and interactions between NCAM and other molecules.\n(§4) For all experiments cells were grown in neurobasal medium with supplements as described above in a final volume of 300 μl/well in 8-well LabTek® Permanox Chamber slides or 500 μl/well in 4-well LabTek® Permanox Chamber slides.\nas §1\n(§5) To evaluate the effect peptides on neurite outgrowth, GDNF and the peptides, G1, G2, G3, A1, A2, A3, N1, N2 and N3 were diluted to the appropriate concentrations and added to the neurons approximately 10 minutes after seeding. Medium alone was added to controls, and cells were incubated for 24 hours.\n(§6) Neurite outgrowth experiments were terminated after the stated time by fixating the cells. To visualize neurons and their neurites, immunostaining of GAP-43 was performed. This staining is specific for neurons. Transfected cells and their neurites should be visible without immunostaining due to the fluorescence emitted by GFP. […] GFP is a cytoplasmic protein, and since thin neurites only contain a small volume of cytoplasm, GFP is only found in small amounts in most neurites. Therefore, a double-staining protocol, where cells were immunostained against GFP and GAP-43, was adopted. This protocol allowed the identification of transfected cells on the basis of GFP-staining in combination with visualization of neurites based on GAP-43-staining.\nWithout prior removal of the medium 300 μl/well (8-well slides) or 500 μl/well (4-well slides) of a PBS solution containing 0.4 mM CaCl2, 0.05 M sucrose and 8% (v/v) formaldehyde was added to the cultures for 20 minutes. Cells were then washed 10 minutes in PBS followed by washing in PBS with 1% (w/v) BSA for 20 minutes, after which cells were incubated with primary antibodies overnight at 4° C.\nRabbit anti-rat GAP-43 antibodies were diluted 1:1000 for staining of untransfected cells and 1:2000 for staining of transfected cells. Mouse anti-GFP antibodies were diluted 1:1000. Antibodies were diluted in a PBS solution containing 7% (v/v) FCS to block unspecific binding, 50 mM glycine to block formaldehyde used for fixation, 0.2% (v/v) saponin to permeabilize cells, and 0.02% (v/v) NaN3 to preserve antibodies for later use.\nThe next day cells were washed 10 minutes in PBS followed by washing in PBS with 1% (w/v) BSA for 20 minutes. Cells were then incubated with secondary antibodies diluted in PBS with 1% (w/v) BSA for one hour at room temperature. Goat anti-rabbit IgG antibodies conjugated to Alexa 488 were diluted 1:1000 for untransfected cells and 1:2000 for transfected cells. Goat anti-mouse IgG antibodies conjugated to Alexa 546 were diluted 1:1000. Finally cells were washed 3×7 minutes in PBS and mounted with fluorescent mounting medium. […]"}, "[3]": {"test_system": "primary hippocampal neurons", "test": "Neurite outgrowth assay, monocultures of primary hippocampal neurons", "conditions": "monoculture, stimulated 24 hours; GDNF 1-100 ng/ml, peptides 0.1-27 μg/ml; versus medium alone", "protocol": "as §2, §3, §4\nFor monocultures, primary hippocampal neurons were seeded in 8-well LabTek® Permanox Chamber slides at a density of 10,000 cells/well.\nas §5\nas §6, with “GAP-43-staining. […]” for “GAP-43-staining.”"}},
  "data": [
    {"molecule": "B1", "values": [
      {"measurement": "neurite outgrowth mediated by the substance after transfection with dominant negative FGFR, on NCAM-expressing fibroblasts", "setting": "hippocampal neurons [1]; NCAM-expressing fibroblasts", "value": "decreases neurite outgrowth"},
      {"measurement": "neurite outgrowth mediated by the substance after transfection with dominant negative FGFR, on control fibroblasts", "setting": "hippocampal neurons [1]; control fibroblasts", "value": "decreases neurite outgrowth"},
      {"measurement": "neurite outgrowth, overall effect of treatment, neurons grown on NCAM-expressing fibroblasts", "setting": "hippocampal neurons [2]; co-culture on NCAM-expressing fibroblasts, GDNF 1-100 ng/ml, peptides 0.1-81 μg/ml", "value": "overall significant effect"},
      {"measurement": "neurite outgrowth, overall effect of treatment, neurons grown on control fibroblasts", "setting": "hippocampal neurons [2]; co-culture on control fibroblasts, GDNF 1-100 ng/ml, peptides 0.1-81 μg/ml", "value": "overall significant effect"},
      {"measurement": "difference between neurite outgrowth on control fibroblasts and on NCAM-expressing fibroblasts across concentrations (one-way ANOVA)", "setting": "hippocampal neurons [2]; difference per concentration, expressed as percentage of control", "value": "mean differences are not all the same"},
      {"measurement": "neurite outgrowth, overall effect of treatment (one-way ANOVA)", "setting": "[3]", "value": "overall statistically significant effect"}
    ]}
  ]
}
